Assays:
Experiment in all cases: EMSA
nsp8 = nsp8 (SARS-CoV-2, UniProt P0DTD1 3943-4140)
nsp7;nsp8ΔN = nsp7;nsp8ΔN (SARS-CoV-2;SARS-CoV-2, UniProt P0DTD1;P0DTD1 3860-3942;4019-4140, |)
nsp8ΔN = nsp8ΔN (SARS-CoV-2, UniProt P0DTD1 4019-4140)
nsp7;nsp8 = nsp7;nsp8 (SARS-CoV-2;SARS-CoV-2, UniProt P0DTD1;P0DTD1 3860-3942;3943-4140, |)
nsp7 = nsp7 (SARS-CoV-2, UniProt P0DTD1 3860-3942)

## GCUUUGAUUUCG (ssRNA) [12-mer ssRNA (FAM, EMSA)]
nsp8
  binding result: binds
nsp7;nsp8ΔN
  binding result: no binding
nsp8ΔN
  binding result: no binding
nsp7;nsp8
  binding result: binds
nsp7
  binding result: no binding

Source: article PMC7980517
